Results: patent US20260242478A1 (published 2026)
Where no end group is shown, it is not given here.

Assays:
[1] = target: T1, Anti-CD28 Fab (SEQ ID NOs: 696, 697); test: clonal phage ELISA on captured anti-CD28 Fab; wells pre-incubated with CD28 antigen as competitor
T1 construct: Biotinylated and captured on neutravidin coated plates in the phage ELISA
T1 sequence (VH, as listed by the source, chain 1 of 2): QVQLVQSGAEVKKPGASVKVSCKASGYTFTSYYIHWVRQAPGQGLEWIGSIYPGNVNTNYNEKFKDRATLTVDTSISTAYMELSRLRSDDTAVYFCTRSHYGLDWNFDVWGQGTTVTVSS
T1 sequence (VL, as listed by the source, chain 2 of 2): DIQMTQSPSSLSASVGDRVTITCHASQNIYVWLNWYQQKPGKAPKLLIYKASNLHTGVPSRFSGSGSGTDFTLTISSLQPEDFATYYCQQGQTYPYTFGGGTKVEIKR
Method: (§1) After panning, phage infected bacteria were plated out and colonies picked into 96 well blocks. Clonal phage was then amplified and separated from bacterial cells via centrifugation.
(§2) Clonal phage were harvested as crude supematants and screened via standard ELISAs. […] Prior to the addition of clonal phage, wells were incubated with blocking buffer and CD28 antigen or blocking buffer alone. Without washing or aspirating, clonal phage supematants were then added to the wells and incubated for a short time. Wells were then washed followed by detection of bound phage using a horse radish conjugated anti-M13 antibody. Clonal phage of interest were then sent for sequence analysis.

[2] = target: T1, Anti-CD28 Fab (SEQ ID NOs: 696, 697); test: clonal phage ELISA; biotinylated anti-CD28 Fab on neutravidin plate, bound phage detected with anti-M13 HRP
Method: as §1, §2

[3] = target: Anti-CD28 Fab (SEQ ID NOs: 696, 697); test: phage binding ELISA; biotinylated anti-CD28 Fab on neutravidin plate, clonal phage supernatant, anti-M13 HRP;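 further: crude clonal phage supernatants screened after wells were preincubated either with CD28 antigen in blocking buffer or with blocking buffer only, phage added without washing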
Target sequence in this assay (VH, as listed by the source, chain 1 of 2): as the sequence (VH, as listed by the source, chain 1 of 2) above
Target sequence in this assay (VL, as listed by the source, chain 2 of 2): as the sequence (VL, as listed by the source, chain 2 of 2) above
Method: as §1, §2

[4] = target: Anti-CD28 Fab (SEQ ID NOs: 696, 697); test: phage binding ELISA on captured anti-CD28 Fab; competitor CD28 antigen pre-incubated in the wells
Target sequence in this assay (VH, as listed by the source, chain 1 of 2): as the sequence (VH, as listed by the source, chain 1 of 2) above
Target sequence in this assay (VL, as listed by the source, chain 2 of 2): as the sequence (VL, as listed by the source, chain 2 of 2) above
Method: as §1, §2

[5] = target: T2, Anti-CD28 Fab (SEQ ID NOs: 696, 697); test: phage binding ELISA; biotinylated anti-CD28 Fab on neutravidin plate, clonal phage supernatant, anti-M13 HRP detection
T2 construct: In the phage ELISA the Fab was biotinylated and captured on neutravidin coated plates
T2 sequence (VH, as listed by the source, chain 1 of 2): as the sequence (VH, as listed by the source, chain 1 of 2) above
T2 sequence (VL, as listed by the source, chain 2 of 2): as the sequence (VL, as listed by the source, chain 2 of 2) above

[6] = target: T2, Anti-CD28 Fab (SEQ ID NOs: 696, 697); test: phage binding ELISA with the Fab-coated wells pre-incubated with CD28 antigen (competitor: CD28), anti-M13 HRP detection
Method: as §1, §2

Row | Binder | Phage binding ELISA, Anti-CD28 Fab signal in the presence of CD28 [1] | Phage binding ELISA, Anti-CD28 Fab signal [2] | Anti-CD28 Fab (SEQ ID NOs: 696, 697) signal [3] | Anti-CD28 Fab signal in the presence of CD28 [4] | also measured
1 | YCVGHLPEYMLECM [Phage-1188] | 0.07 | 1.08 |  |  | 
2 | YCEGHAEQYMKKCL (cysteine pairing not given here; also: displayed on phage by fusion to pIII, linker and pIII sequence not given here, Clonal phage of the Peptide-87 library; not shown: fused to the pIII filament of the bacteriophage) [Phage-1177] |  |  | 1.12 | 0.07 | 
3 | YCDGHSWIYMVKCL [Phage-1166] |  |  |  |  | Anti-CD28 Fab signal (phage binding ELISA) [5]: 1.16; Anti-CD28 Fab signal in the presence of CD28 (phage binding ELISA) [6]: 0.06
4 | YCEGHMGEYMLKCL [Phage-1184] | 0.06 | 1.1 |  |  | 
5 | YCDGHAMEYMEKCL [Phage-1182] | 0.08 | 1.11 |  |  | 
6 | YCDGHSFHYMAKCL [Phage-1189] | 0.06 | 1.08 |  |  | 
7 | YCDGHAKVYIWKCL [Phage-1194] | 0.08 | 1.06 |  |  | 
8 | YCEGHLYEYMWKCL (cysteine pairing not given here; also: displayed on phage by fusion to pIII, linker and pIII sequence not given here, Clonal phage of the Peptide-87 library; not shown: fused to the pIII filament of the bacteriophage) [Phage-1174] |  |  | 1.13 | 0.07 | 
9 | YCEGHLPQYMSKCL [Phage-1168] |  |  |  |  | Anti-CD28 Fab signal (phage binding ELISA) [5]: 1.15; Anti-CD28 Fab signal in the presence of CD28 (phage binding ELISA) [6]: 0.09
10 | YCEGHLKEYMQKCL [Phage-1163] |  |  |  |  | Anti-CD28 Fab signal (phage binding ELISA) [5]: 1.17; Anti-CD28 Fab signal in the presence of CD28 (phage binding ELISA) [6]: 0.07
11 | YCVGHSEQYMAKCL (cysteine pairing not given here; also: displayed on phage by fusion to pIII, linker and pIII sequence not given here, Clonal phage of the Peptide-87 library; not shown: fused to the pIII filament of the bacteriophage) [Phage-1175] |  |  | 1.13 | 0.06 | 
12 | YCAGHSSEYIGKCL [Phage-1159] |  |  |  |  | Anti-CD28 Fab signal (phage binding ELISA) [5]: 1.17; Anti-CD28 Fab signal in the presence of CD28 (phage binding ELISA) [6]: 0.06
13 | YCDGHVVEYMSKCL (cysteine pairing not given here; also: displayed on phage by fusion to pIII, linker and pIII sequence not given here, Clonal phage of the Peptide-87 library; not shown: fused to the pIII filament of the bacteriophage) [Phage-1178] |  |  | 1.12 | 0.08 | 
14 | YCDGHLQMYMMKCL (cysteine pairing not given here; also: displayed on phage by fusion to pIII, linker and pIII sequence not given here, Clonal phage of the Peptide-87 library; not shown: fused to the pIII filament of the bacteriophage) [Phage-1173] |  |  | 1.14 | 0.07 | 
15 | YCDGHANAYIWKCL [Phage-1191] | 0.09 | 1.07 |  |  | 
16 | YCDGHEAEYMWKCL (cysteine pairing not given here; also: displayed on phage by fusion to pIII, linker and pIII sequence not given here, Clonal phage of the Peptide-87 library; not shown: fused to the pIII filament of the bacteriophage) [Phage-1176] |  |  | 1.13 | 0.1 | 
17 | YCDGHIWPWIEKCL (cysteine pairing not given here; also: displayed on phage by fusion to pIII, linker and pIII sequence not given here, Clonal phage of the Peptide-87 library; not shown: fused to the pIII filament of the bacteriophage) [Phage-1180] |  |  | 1.11 | 0.11 | 
18 | YCDGHTKEYMWKCL [Phage-1185] | 0.06 | 1.1 |  |  | 

Row | Binder | Phage binding ELISA, Anti-CD28 Fab signal in the presence of CD28 [1] | Phage binding ELISA, Anti-CD28 Fab signal [2] | Anti-CD28 Fab (SEQ ID NOs: 696, 697) signal [3] | Anti-CD28 Fab signal in the presence of CD28 [4] | also measured
19 | YCAGHAEEYMLKCL [Phage-1186] | 0.07 | 1.09 |  |  | 
20 | YCEGHLWEYLAKCL [Phage-1183] | 0.05 | 1.1 |  |  | 
21 | YCDGHEQQYMEKCL (cysteine pairing not given here; also: displayed on phage by fusion to pIII, linker and pIII sequence not given here, Clonal phage of the Peptide-87 library; not shown: fused to the pIII filament of the bacteriophage) [Phage-1172] |  |  | 1.14 | 0.06 | 
22 | YCEGHSAEYIGKCL [Phage-1187] | 0.07 | 1.08 |  |  | 
23 | YCEGHRAEYMSKCL [Phage-1165] |  |  |  |  | Anti-CD28 Fab signal (phage binding ELISA) [5]: 1.16; Anti-CD28 Fab signal in the presence of CD28 (phage binding ELISA) [6]: 0.09
24 | YCQGHLPQYIEKCL (cysteine pairing not given here; also: displayed on phage by fusion to pIII, linker and pIII sequence not given here, Clonal phage of the Peptide-87 library; not shown: fused to the pIII filament of the bacteriophage) [Phage-1170] |  |  | 1.14 | 0.06 | 
25 | YCEGHAEQYMEKCL [Phage-1162] |  |  |  |  | Anti-CD28 Fab signal (phage binding ELISA) [5]: 1.17; Anti-CD28 Fab signal in the presence of CD28 (phage binding ELISA) [6]: 0.08
26 | YCEGHAQEYMAKCL [Phage-1193] | 0.08 | 1.06 |  |  | 
27 | YCDGHLSVYMSKCL [Phage-1167] |  |  |  |  | Anti-CD28 Fab signal (phage binding ELISA) [5]: 1.15; Anti-CD28 Fab signal in the presence of CD28 (phage binding ELISA) [6]: 0.07
28 | YCEGHVAEYRAKCL (cysteine pairing not given here; also: displayed on phage by fusion to pIII, linker and pIII sequence not given here, Clonal phage of the Peptide-87 library; not shown: fused to the pIII filament of the bacteriophage) [Phage-1169] |  |  | 1.15 | 0.09 | 
29 | YCEGHSSLYLEKCL (cysteine pairing not given here; also: displayed on phage by fusion to pIII, linker and pIII sequence not given here, Clonal phage of the Peptide-87 library; not shown: fused to the pIII filament of the bacteriophage) [Phage-1181] |  |  | 1.11 | 0.08 | 
30 | YCEGHIPMYMLKCM [Phage-1192] | 0.09 | 1.06 |  |  | 
31 | YCDGHLPDYMAKCL [Phage-1161] |  |  |  |  | Anti-CD28 Fab signal (phage binding ELISA) [5]: 1.17; Anti-CD28 Fab signal in the presence of CD28 (phage binding ELISA) [6]: 0.07
32 | YCAGHLPQYMHKCL (cysteine pairing not given here; also: displayed on phage by fusion to pIII, linker and pIII sequence not given here, Clonal phage of the Peptide-87 library; not shown: fused to the pIII filament of the bacteriophage) [Phage-1179] |  |  | 1.11 | 0.08 | 
33 | YCEGHSEMYMSKCL [Phage-1190] | 0.09 | 1.07 |  |  | 
34 | YCEGHAAAYMGKCL (cysteine pairing not given here; also: displayed on phage by fusion to pIII, linker and pIII sequence not given here, Clonal phage of the Peptide-87 library; not shown: fused to the pIII filament of the bacteriophage) [Phage-1171] |  |  | 1.14 | 0.08 | 
35 | YCEGHSYQYMQKCL [Phage-1164] |  |  |  |  | Anti-CD28 Fab signal (phage binding ELISA) [5]: 1.16; Anti-CD28 Fab signal in the presence of CD28 (phage binding ELISA) [6]: 0.06
